# Results as given in US20030199016.
# Assays:
# [1] = system: ACTIVASE recombinant human tissue-type plasminogen activator (r-tPA)
# [2] = system: CHO plasminogen activator
# Sequence of CHO plasminogen activator (chain, as listed by the source): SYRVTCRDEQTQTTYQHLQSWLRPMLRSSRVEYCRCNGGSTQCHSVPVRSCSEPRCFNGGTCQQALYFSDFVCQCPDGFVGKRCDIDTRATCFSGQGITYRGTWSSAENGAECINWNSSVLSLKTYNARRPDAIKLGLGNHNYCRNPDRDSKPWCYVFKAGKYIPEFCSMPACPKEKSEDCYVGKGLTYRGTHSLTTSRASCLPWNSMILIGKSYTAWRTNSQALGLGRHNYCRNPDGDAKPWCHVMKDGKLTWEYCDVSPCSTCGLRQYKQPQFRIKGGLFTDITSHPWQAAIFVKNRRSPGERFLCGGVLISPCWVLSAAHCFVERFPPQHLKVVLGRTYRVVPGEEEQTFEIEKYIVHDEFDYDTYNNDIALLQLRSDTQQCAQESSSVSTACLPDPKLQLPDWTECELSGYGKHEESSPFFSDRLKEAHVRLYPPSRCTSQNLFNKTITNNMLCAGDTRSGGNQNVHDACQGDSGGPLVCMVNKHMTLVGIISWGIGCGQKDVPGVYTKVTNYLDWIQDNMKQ
# Sequence of ACTIVASE recombinant human tissue-type plasminogen activator (r-tPA) (chain, as listed by the source): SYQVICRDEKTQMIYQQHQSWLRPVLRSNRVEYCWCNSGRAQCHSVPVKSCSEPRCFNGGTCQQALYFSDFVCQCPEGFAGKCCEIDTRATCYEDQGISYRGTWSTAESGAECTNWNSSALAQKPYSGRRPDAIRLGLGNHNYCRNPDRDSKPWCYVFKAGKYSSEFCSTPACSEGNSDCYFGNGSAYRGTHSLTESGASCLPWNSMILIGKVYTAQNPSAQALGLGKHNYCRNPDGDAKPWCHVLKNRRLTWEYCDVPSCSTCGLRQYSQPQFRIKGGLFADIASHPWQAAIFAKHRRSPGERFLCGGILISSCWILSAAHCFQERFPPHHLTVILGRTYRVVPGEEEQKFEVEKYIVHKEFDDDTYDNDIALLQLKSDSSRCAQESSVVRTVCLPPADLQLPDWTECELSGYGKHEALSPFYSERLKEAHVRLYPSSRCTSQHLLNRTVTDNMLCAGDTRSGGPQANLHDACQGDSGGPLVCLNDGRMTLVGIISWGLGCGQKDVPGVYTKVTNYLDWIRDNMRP
# Sequence of TNK-tPA (chain, as listed by the source): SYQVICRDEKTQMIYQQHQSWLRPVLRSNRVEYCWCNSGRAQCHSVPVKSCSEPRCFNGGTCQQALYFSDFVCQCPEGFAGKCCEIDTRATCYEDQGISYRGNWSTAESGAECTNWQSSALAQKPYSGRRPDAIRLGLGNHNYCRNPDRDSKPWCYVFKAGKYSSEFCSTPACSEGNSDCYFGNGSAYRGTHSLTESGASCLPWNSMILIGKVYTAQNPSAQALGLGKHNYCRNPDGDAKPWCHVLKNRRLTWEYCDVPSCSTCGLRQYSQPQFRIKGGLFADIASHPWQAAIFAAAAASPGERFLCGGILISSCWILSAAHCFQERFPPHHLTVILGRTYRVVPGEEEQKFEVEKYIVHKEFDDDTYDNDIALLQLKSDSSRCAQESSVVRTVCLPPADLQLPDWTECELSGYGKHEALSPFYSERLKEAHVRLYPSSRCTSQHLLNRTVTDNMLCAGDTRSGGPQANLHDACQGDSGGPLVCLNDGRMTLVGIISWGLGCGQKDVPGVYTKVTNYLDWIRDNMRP
substance,measurement,setting,value
Plasminogen,conversion of single-chain form to two-chain form (reversed-phase HPLC after plasmin and DTT/urea treatment),TNK-tPA,incubation with plasminogen converts the single-chain form of the three plasminogen activators to the two-chain form
same,conversion of single-chain form to two-chain form (reversed-phase HPLC after plasmin and DTT/urea treatment),[1],incubation with plasminogen converts the single-chain form of the three plasminogen activators to the two-chain form
same,conversion of single-chain form to two-chain form (reversed-phase HPLC after plasmin and DTT/urea treatment),[2],incubation with plasminogen converts the single-chain form of the three plasminogen activators to the two-chain form
